# Experimental data published in PMC11488100, “PET imaging of CXCR4 expression using [^18F]AlF-NOTA-QHY-04 for hematologic malignancy and solid tumors” (Theranostics, 2024).
# Bridge positions count the residues as written; N and C are the ends. Square brackets hold non-standard residues; d marks the D form. Peptide text beside a SMILES is read from it. * marks the point of attachment. NOTA = O=C(O)CN1CCN(CC(=O)O)CCN(CC(=O)*)CC1; 2Nal = N[C@@H](Cc1ccc2ccccc2c1)C(=O)O; Pen = CC(C)(S)[C@H](N)C(=O)O; 4Amb = NCc1ccc(C(=O)O)cc1; Ahx = NCCCCCC(=O)O
# Tests used:
# [1] = test system: NCI-H69 subcutaneous tumor xenografts; parameters: species or system mice; details: mouse, in vivo
# Procedure: The xenografted mice were injected with [^18F]AlF-NOTA-QHY-04 (3.70 ± 0.74 MBq) in about 150 μL saline via the tail vein. All the PET scans were performed with micro-PET/CT (IRIS PET/CT, Inviscan, France) and the radioactivity were expressed as %ID/mL. Detailed procedures for dynamic, static imaging and blocking studies are provided in the supplemental materials. Biodistribution studies were conducted using mice with xenografted A549/CXCR4 tumors with and without blocking (n = 3). The mice were sacrificed immediately after static PET/CT 1 h post injection (p.i.), then the tumors and organs were quickly collected, weighed and counted for radioactivity by a γ-counter. The γ-counter activity readings were background- and decay-corrected and represented as the percentage of injected dose per gram of tissue (%ID/g).
# 7.4, 150 mM NaCl, 0.005% tween-20) with continuous shaking at 1000 rpm. Biotinylated CXCR4 was immobilized on Super Streptavidin (SSA) biosensors by immersing the sensors in a protein solution of 35 µg/mL. […]
# and 1 μM NOTA-QHY-04 sample) was prepared and flowed. […] Prior to fitting, the data were baseline-subtracted and analyzed using a 1:1 binding model and the ForteBio data analysis software. Mean Kd value was determined by applying a global fit to all the data. […]
# (§1) NaOH. Finally, the cell lysates were collected and measured by an automatic gamma counter (2470 Wizard2, PerkinElmer). […]
# CXCR4 expression = target: T1, CXCR4 expression (Homo sapiens, UniProt P61073); details: in vivo
# T1 construct: from tissue; host or cells: tumour lesions in cancer patients (DLBCL, SCLC, NSCLC, TNBC, pancreatic carcinoma, glioma, HCC, CRC), in vivo
# Source text: Potential eligible patients with newly diagnosed tumor were recruited from Shandong Cancer Hospital and institute from November 2022 to December 2023. A total of 55 patients including 8 tumor types were represented in this study (diffuse large B-cell lymphoma (DLBCL), n = 6; SCLC, n = 30; non-small cell lung cancer (NSCLC), n = 4; triple-negative breast cancer (TNBC), n = 3; pancreatic carcinoma, n = 3; glioma, n = 7; hepatocellular carcinoma (HCC), n = 1; and colorectal carcinoma (CRC), n = 1). The [^18F]AlF-NOTA-QHY-04 imaging study in patients was approved by the Institutional Review Board of Shandong Cancer Hospital and Institute (no. SDZLEC2023-256-02), and the patients provided their informed consent before inclusion in this study. In this prospective observational study, [^18F]AlF-NOTA-QHY-04 PET/CT scans should not affect the normal process of routine examinations and treatment as usual. Patients were enrolled according to the following criteria: (1) newly diagnosed cancer patients with visible tumors on conventional imaging; (2) histopathologically confirmed diagnosis; (3) age ≥ 18 years; (4) Eastern Cooperative Oncology Group (ECOG) performance status score of 0-2; (5) no prior cancer-directed therapy; (6) ability to undergo [^18F]AlF-NOTA-QHY-04 PET/CT scanning before treatment initiation. Specifically, regarding histological confirmation, we followed the standard clinical practice guidelines for each type of cancer [21]-[26], and provided detailed descriptions of our approach for obtaining histological evidence in the supplemental materials. […]
# as §1
# The tumor-bearing mice were injected with 3.70 ± 0.74 MBq of [18F]AlF-NOTA-QHY-04 in about 150 μL saline via the tail vein. […] The PET/CT images were analyzed using OsiriX MD software (Pixmeo SARL, Geneva, Switzerland), and the regions of interest (ROIs) were drawn along the boundary covering the whole tumor volume for quantification of the radioactivity (expressed as %ID/mL). […]
# T1 sequence (P61073 whole entry): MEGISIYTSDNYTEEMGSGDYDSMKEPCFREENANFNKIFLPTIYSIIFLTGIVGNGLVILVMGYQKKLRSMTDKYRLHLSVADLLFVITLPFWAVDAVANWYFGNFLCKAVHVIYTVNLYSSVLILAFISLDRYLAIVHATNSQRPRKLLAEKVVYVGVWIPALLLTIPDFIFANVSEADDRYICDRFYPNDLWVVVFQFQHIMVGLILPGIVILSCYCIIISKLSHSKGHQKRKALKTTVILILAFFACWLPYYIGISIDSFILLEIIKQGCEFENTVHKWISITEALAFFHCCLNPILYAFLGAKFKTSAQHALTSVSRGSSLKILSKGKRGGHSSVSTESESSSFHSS
smiles,measurement,setting,value
C[C@H](NC(=O)[C@H](CCCNC(=N)N)NC(=O)CCCCCNC(=O)c1ccc(CNC(=O)CN2CCN(CC(=O)O)CCN(CC(=O)O)CC2)cc1)C(=O)N[C@@H]1CSSC(C)(C)[C@@H](C(=O)O)NC(=O)[C@H](Cc2c[nH]cn2)NC(=O)[C@H](Cc2ccc3ccccc3c2)NC(=O)[C@H](CCCNC(=N)N)NC1=O [[^18F]AlF-NOTA-QHY-04] ({NOTA-4Amb-Ahx}-RA[dC]R[2Nal]H[Pen]-OH; disulfide 3-7),time of highest tumor uptake,[1],about 50 min
same,SUVmean,CXCR4 expression,7.52 ± 3.01
same,average SUVmax,CXCR4 expression,6.29 ± 2.85
same,average T/N (tumor-to-normal brain ratio),CXCR4 expression,62.55 ± 43.24
